The source of these data is patent US20190046652A1.

The target in one test is protein (GFP & Nanobody). The experiment in a line: fluorescence titration, curve fitting.
The target of the next test is Peptide (C4 and C2). The experiment in a line: fluorescence titration, curve fitting.

B1: VEPEP-3a (peptide)
peptide: XKWFERWFREWPRKRR
HELM: PEPTIDE1{[ac].[bAla].K.W.F.E.R.W.F.R.E.W.P.R.K.R.R.[SCCN[*:1]]}$$$$V2.0
SMILES: CC(=O)NCCC(=O)N[C@@H](CCCCN)C(=O)N[C@@H](Cc1c[nH]c2ccccc12)C(=O)N[C@@H](Cc1ccccc1)C(=O)N[C@@H](CCC(=O)O)C(=O)N[C@@H](CCCNC(=N)N)C(=O)N[C@@H](Cc1c[nH]c2ccccc12)C(=O)N[C@@H](Cc1ccccc1)C(=O)N[C@@H](CCCNC(=N)N)C(=O)N[C@@H](CCC(=O)O)C(=O)N[C@@H](Cc1c[nH]c2ccccc12)C(=O)N1CCC[C@H]1C(=O)N[C@@H](CCCNC(=N)N)C(=O)N[C@@H](CCCCN)C(=O)N[C@@H](CCCNC(=N)N)C(=O)N[C@@H](CCCNC(=N)N)C(=O)NCCS
The term Kd denotes the equilibrium constant for the complex coming apart. Lower therefore signals a tighter complex. Turning to B1, the dissociation constant (Kd) with protein (GFP & Nanobody) was 1000 nM; with Peptide (C4 and C2) it was 10 to 20 nM.
